Data as given in patent publication US20250242041A1 (Seagen, published 2025).

Legend:
[1] = target: T1, human αvβ6 on 293F:huβ6 cells (human, UniProt P06756 31-1048; P18564 22-788); experiment: competition binding on 293F cells; 2nM m2A2-AF647 competitor
T1 chain 1: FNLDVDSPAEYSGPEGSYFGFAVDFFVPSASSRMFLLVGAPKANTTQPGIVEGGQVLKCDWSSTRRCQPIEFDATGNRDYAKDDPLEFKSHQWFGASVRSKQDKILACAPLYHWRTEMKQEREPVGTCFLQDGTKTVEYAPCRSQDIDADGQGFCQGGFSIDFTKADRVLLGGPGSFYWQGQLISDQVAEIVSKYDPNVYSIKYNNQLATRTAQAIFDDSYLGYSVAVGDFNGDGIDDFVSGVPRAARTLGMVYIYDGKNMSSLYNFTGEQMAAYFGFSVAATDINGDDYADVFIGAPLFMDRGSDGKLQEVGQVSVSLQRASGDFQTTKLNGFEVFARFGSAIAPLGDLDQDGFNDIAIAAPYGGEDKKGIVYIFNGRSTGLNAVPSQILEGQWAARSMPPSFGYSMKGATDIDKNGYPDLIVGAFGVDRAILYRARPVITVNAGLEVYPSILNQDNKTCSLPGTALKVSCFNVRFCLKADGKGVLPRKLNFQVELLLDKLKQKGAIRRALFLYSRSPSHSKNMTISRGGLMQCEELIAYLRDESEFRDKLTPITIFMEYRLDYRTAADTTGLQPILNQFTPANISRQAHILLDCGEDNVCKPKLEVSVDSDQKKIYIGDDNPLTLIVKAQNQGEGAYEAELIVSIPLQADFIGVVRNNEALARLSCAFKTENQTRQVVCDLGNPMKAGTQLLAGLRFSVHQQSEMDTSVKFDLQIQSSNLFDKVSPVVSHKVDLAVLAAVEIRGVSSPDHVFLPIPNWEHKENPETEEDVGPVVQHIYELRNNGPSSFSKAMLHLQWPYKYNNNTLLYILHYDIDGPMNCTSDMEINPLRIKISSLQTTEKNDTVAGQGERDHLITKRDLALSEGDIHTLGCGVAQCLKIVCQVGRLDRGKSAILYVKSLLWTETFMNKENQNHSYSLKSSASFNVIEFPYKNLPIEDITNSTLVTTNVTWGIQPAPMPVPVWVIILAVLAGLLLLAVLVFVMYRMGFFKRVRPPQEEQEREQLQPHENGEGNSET
T1 chain 2: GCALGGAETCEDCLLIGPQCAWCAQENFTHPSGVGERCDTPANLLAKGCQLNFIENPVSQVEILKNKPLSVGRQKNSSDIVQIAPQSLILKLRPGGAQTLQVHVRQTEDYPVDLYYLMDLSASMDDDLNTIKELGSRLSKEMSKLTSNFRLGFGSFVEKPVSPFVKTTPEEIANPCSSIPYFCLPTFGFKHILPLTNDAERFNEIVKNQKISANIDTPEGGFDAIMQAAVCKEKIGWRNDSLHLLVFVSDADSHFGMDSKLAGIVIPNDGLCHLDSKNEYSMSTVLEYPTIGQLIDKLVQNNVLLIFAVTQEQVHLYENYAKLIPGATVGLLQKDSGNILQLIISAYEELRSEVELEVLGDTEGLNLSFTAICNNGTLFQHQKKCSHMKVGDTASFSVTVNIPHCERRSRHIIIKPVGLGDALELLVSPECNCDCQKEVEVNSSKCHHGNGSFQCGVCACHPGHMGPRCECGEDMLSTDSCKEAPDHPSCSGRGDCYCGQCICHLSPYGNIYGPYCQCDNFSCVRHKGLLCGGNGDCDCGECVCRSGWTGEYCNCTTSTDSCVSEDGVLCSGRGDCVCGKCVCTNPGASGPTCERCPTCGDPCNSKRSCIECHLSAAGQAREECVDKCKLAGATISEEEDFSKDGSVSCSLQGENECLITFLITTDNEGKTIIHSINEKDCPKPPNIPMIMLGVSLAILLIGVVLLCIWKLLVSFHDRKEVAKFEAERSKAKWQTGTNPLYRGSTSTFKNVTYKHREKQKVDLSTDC

[2] = target: T1, human αvβ6 on 293F:huβ6 cells; experiment: competition binding on 293F cells
[3] = target: T2, cyno αvβ6 on 293F:cynoβ6 cells (human;Macaca fascicularis, UniProt P06756 31-1048; A0A2K5TZ36 22-787); experiment: competition binding on 293F cells
T2 chain 1: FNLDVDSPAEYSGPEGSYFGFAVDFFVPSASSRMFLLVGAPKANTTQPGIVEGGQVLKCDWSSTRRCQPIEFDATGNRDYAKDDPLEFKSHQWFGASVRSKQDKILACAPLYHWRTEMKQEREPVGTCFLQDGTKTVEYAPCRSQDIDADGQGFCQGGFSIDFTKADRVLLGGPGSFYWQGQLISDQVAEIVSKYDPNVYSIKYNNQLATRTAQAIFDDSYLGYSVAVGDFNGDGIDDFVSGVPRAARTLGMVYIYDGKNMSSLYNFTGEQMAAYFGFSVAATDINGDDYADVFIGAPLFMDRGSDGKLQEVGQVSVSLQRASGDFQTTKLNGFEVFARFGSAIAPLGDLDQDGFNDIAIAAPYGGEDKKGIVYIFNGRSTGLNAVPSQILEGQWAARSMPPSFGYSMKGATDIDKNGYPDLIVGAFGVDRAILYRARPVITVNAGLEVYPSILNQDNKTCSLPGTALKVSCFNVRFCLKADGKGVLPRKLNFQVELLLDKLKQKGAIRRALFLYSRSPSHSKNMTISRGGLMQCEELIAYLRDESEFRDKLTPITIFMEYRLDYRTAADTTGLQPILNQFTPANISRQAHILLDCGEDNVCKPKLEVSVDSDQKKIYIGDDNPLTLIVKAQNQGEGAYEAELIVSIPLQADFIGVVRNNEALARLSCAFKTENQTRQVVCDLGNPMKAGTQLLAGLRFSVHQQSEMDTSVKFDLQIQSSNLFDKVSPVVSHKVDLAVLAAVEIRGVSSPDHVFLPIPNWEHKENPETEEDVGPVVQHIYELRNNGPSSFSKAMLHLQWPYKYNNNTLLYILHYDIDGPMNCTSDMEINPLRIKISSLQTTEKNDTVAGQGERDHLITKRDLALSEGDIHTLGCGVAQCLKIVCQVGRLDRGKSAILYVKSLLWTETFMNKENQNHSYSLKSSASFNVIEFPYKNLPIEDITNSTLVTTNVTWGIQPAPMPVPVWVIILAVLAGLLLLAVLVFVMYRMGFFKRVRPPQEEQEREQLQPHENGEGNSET
T2 chain 2: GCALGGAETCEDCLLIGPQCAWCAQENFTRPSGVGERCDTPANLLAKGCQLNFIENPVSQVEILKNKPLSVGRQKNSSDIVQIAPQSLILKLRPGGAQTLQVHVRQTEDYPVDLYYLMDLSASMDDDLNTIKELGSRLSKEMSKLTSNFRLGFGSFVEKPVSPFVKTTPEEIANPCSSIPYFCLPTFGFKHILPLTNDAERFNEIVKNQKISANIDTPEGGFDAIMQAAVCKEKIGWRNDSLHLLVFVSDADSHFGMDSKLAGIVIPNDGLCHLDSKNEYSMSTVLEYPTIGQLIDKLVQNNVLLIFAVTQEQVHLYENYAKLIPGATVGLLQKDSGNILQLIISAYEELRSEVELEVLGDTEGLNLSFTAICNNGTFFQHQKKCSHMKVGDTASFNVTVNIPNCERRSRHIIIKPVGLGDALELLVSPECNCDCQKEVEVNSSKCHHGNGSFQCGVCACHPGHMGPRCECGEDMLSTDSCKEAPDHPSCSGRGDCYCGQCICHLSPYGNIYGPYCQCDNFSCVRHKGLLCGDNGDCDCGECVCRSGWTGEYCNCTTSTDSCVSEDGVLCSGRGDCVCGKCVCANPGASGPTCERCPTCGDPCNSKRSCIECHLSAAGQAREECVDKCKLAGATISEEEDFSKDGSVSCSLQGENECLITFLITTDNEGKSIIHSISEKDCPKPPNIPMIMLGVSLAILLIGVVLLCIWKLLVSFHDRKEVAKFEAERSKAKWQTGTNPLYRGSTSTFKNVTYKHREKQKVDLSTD

[4] = target: T1, human αvβ6 on 293F:huβ6 cells; experiment: saturation binding on 293F cells; AF647-labeled
[5] = target: T2, cyno αvβ6 on 293F:cynoβ6 cells; experiment: saturation binding on 293F cells; AF647-labeled

B1: h2A2 HCLG humanized antibody (antibody, human IgG1, kappa, V domains shown)
VH: QFQLVQSGAEVKKPGASVKVSCKASGYSFTDYNVNWVRQAPGQGLEWIGVINPKYGTTRYNQKFKGRATLTVDKSTSTAYMELSSLRSEDTAVYYCTRGLNAWDYWGQGTLVTVSS
VL: DIQMTQSPSSLSASVGDRVTITCGASENIYGALNWYQQKPGKAPKLLIYGATNLEDGVPSRFSGSGSGRDYTFTISSLQPEDIATYYCQNVLTTPYTFGQGTKLEIKR
notes: Labelled with AlexaFluor-647 in the saturation assay; also called humanized 2A2 HCLG
EC50 [1]: 1 nM | EC50 [2]: 3 nM | EC50 [3]: 3 nM | EC50 [4]: 0.3 nM | EC50 [5]: 0.2 nM
